Two molecules from patent publication US20120010388A1 (published 2012) can be followed below.

Usually EC50 stands for the concentration that produces a half-maximal response. A higher EC50 goes with weaker potency.

Assay [1] addresses T1, HER2 (UniProt P04626 23-1255, limits assumed).
T1 construct: whole, on cells; The target cells are SKBR3; also called ErbB-2; CD340
Briefly: flow cytometry on SKBR3 cells (HER2 and Lewis Y on the cells), PE anti-human Fc detection, half maximal staining intensity. The protocol: SKBR3 cells are cultured in RPMI1640 containing 10% fetal calf serum an 8 mM glutamine. The cells are harvested by trypsination. A total of 1×10⁵ cells in PBS containing 0.1% BSA are incubated with dilutions of the bispecific molecules or control proteins (anti-Lewis Y antibody IGN311 and anti-HER Fcabs respectively) in the range of 1 mM to 0.1 nM and incubated on ice for 20 min. After removal of excess of bispecific molecules or control proteins cells are incubated for 10 min on ice with phycoerythrin-R-coupled polyclonal anti-human FC antibody (Sigma). Measurements are performed on a FACS analyzer (FACS Calibur).
The half maximal staining intensity (EC50) is reached for molecule no. 1 at around 1 nM and for molecule no. 2 at around 10 nM.
Background: A flow cytometer gives signals particle by particle.

In assay [2] the target is T1, HER2. Briefly: cell-based or functional assay.

B1: molecule no. 1 (IGN311/Fcab 10-03-6) (bispecific antibody, human IgG1, kappa)
heavy: EVQLLESGGGLVQPGGSLRLSCAASGFTFSDYYMYWVRQAPEKRLEWVAYISNGGGSSHYVDSVKGRFTISRDNAKNTLYLQMNSLRAEDTALYHCARGMDYGAWFAYWGQGTLVTVSSASTKGPSVFPLAPSSKSTSGGTAALGCLVKDYFPEPVTVSWNSGALTSGVHTFPAVLQSSGLYSLSSVVTVPSSSLGTQTYICNVNHKPSNTKVDKKVEPKSCDKTHTCPPCPAPELLGGPSVFLFPPKPKDTLMISRTPEVTCVVVDVSHEDPEVKFNWYVDGVEVHNAKTKPREEQYNSTYRVVSVLTVLHQDWLNGKEYKCKVSNKALPAPIEKTISKAKGQPREPQVYTLPPSRDEYLHGDVSLTCLVKGFYPSDIAVEWESNGQPENNYKTTPPVLDSDGSFFLYSKLTVARYSPRMLRWAHGNVFSCSVMHEALHNHYTQKSLSLSPGK
light: DIVMTQSPLSLPVTPGEPASISCRSSQSIVHSNGNTYLEWYLQKPGQSPQLLISKVSNRFSGVPDRFSGSGSGTDFTLKISRVEAEDVGVYYCFQGSHVPFTFGQGTKLEIKRTVAAPSVFIFPPSDEQLKSGTASVVCLLNNFYPREAKVQWKVDNALQSGNSQESVTEQDSKDSTYSLSSTLTLSKADYEKHKVYACEVTHQGLSSPVTKSFNRGEC
notes: IgG: humanized anti-Lewis Y antibody IGN311 whose CH3 domain is replaced by the CH3 of the anti-HER2 Fcab 10-03-6
On to B1, for which, in assay [1], the EC50 was about 1 nM. In addition, the “half maximal (50%) immediate cytotoxicity (EC50), 51Cr release from SKBR3 cells” value in assay [2] was about 1 nM.

B2: molecule no. 2 (IGN311/Fcab H561G3M1G4) (bispecific antibody, human IgG1, kappa)
heavy: EVQLLESGGGLVQPGGSLRLSCAASGFTFSDYYMYWVRQAPEKRLEWVAYISNGGGSSHYVDSVKGRFTISRDNAKNTLYLQMNSLRAEDTALYHCARGMDYGAWFAYWGQGTLVTVSSASTKGPSVFPLAPSSKSTSGGTAALGCLVKDYFPEPVTVSWNSGALTSGVHTFPAVLQSSGLYSLSSVVTVPSSSLGTQTYICNVNHKPSNTKVDKKVEPKSCDKTHTCPPCPAPELLGGPSVFLFPPKPKDTLMISRTPEVTCVVVDVSHEDPEVKFNWYVDGVEVHNAKTKPREEQYNSTYRVVSVLTVLHQDWLNGKEYKCKVSNKALPAPIEKTISKAKGQPREPQVYTLPPSRDEFFTYWVSLTCLVKGFYPSDIAVEWESNGQPENNYKTTPPVLDSDGSFFLYSKLTVDRRRWTAGNVFSCSVMHEALHNHYTQKSLSLSPGK
light: B1 light
notes: IgG: humanized anti-Lewis Y antibody IGN311 whose CH3 domain is replaced by the CH3 of the anti-HER2 Fcab H561G3M1G4
In assay [1], B2 showed an EC50 of about 10 nM. In addition, the “half maximal (50%) immediate cytotoxicity (EC50), 51Cr release from SKBR3 cells” value in assay [2] was about 10 nM.
